In US20230406936A1 (IMMUNOURCHIN, published 2023):
Numbering of substitutions follows the chain as printed.

Assays:
[1] = target: T1, recombinant PD-L1-3-HIS (secretory splice variant PD-L1-3 with HIS tag, from HEK293 cells) (human, UniProt Q9NZQ7 19-178); experiment: direct ELISA, 50 ng/well rPD-L1-3-HIS coated
T1 construct: The range 19-178 comes from the background paragraph; also called rPD-L1-3-HIS; sPD-L1-3-HIS; not shown: HIS tag

[2] = target: T2, native form of secretory sPD-L1-3, in culture supernatant of transfected MC38 cells (human, UniProt Q9NZQ7 19-178); experiment: indirect (sandwich) ELISA: antibody coated, MC38 culture supernatant with sPD-L1-3
T2 construct: Untagged, secreted by MC38 cells; also called sPD-L1-3/12

[3] = target: T3, pan IgC segment of human PD-L1, expressed on MC38 / CHO-K1 cells (human, UniProt Q9NZQ7 132-238); experiment: flow cytometry on cells expressing pan IgC
T3 construct: also called PD-L1-pan-IgC; hPD-L1 pan-IgC segment
Procedure: (§1) MC38/CHO-K1 cells expressing either PD-L1 or pan IgC were used as positive detection cells. MC38/CHO-K1 wild type cells and PD-L2-expressed MC38/CHO-K1 cells were used as negative control. About 1×10⁵ negative and positive cells were stained with either sera from immunized mice (1:100, 1:1000, 1:10000 dilutions) or culture supernatant (50 μl) from hybridoma, or mouse monoclonal antibody (concentrations as indicated in the figures), or other humanized antibodies (concentrations as indicated in the figures), and incubated at 4° C. for 15 min. After washed with PBS, the cells were stained with a PE conjugated goat anti mouse IgG (BD biosciences) and incubated in dark place at 4° C. for 15 min. After washed with PBS, the stained cells were analyzed by a flow cytometry (NovoCyte, Acebio, Hangzhou).
(§2) MC38 cells expressing either hPD-L1 or pan-IgC were used as positive detection cells, whereas, both hPD-L2 expressed and parental MC38 cells were used as negative detection cells.
(§3) 50 μl/well of hybridoma culture supernatant or 100 ng/well mouse monoclonal antibody were mixed with 1×10 5 of either positive or negative detection cells at 4° C. for 15 min. After washed with PBS, the cells were stained with a PE conjugated goat anti mouse antibody (BD biosciences) at 4° C. for 15 min in dark place.

[4] = target: T4, human PD-L1 (membrane-bound type), expressed on MC38 / CHO-K1 cells (human, UniProt Q9NZQ7 19-290); experiment: flow cytometry on MC38 cells expressing hPD-L1
T4 construct: Full-length gene transfected into MC38 and CHO-K1 cells; also called hPD-L1
Procedure: as §1, §2, §3

[5] = target: T3, pan IgC segment of human PD-L1, …; experiment: flow cytometry on cells with pan-IgC
[6] = target: T5, human CD80 (membrane-bound type), on cells (human, UniProt P33681 35-288); experiment: flow cytometry on cells with membrane-bound human CD80
T5 construct: whole, on cells
T5 sequence (looked up): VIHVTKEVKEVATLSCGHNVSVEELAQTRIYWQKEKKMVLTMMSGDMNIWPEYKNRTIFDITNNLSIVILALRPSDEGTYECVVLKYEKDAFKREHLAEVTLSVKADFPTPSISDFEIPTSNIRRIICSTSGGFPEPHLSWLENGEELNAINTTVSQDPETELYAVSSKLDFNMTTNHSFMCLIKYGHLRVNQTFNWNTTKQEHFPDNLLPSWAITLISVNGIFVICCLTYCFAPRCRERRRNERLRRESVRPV
Excerpt: FIG. 10. […] C. CHO-K1 parental cells were used as a negative control. Clone #2D10: human CD80 mouse monoclonal antibody (Elabscience, Wuhan). 2nd antibody: PE labeled goat anti-mouse antibody (BD Biosciences)
as §1

[7] = target: T6, human PD-L2 (membrane-bound type), expressed on CHO-K1 cells (human, UniProt Q9BQ51 20-273); experiment: flow cytometry on cells with membrane-bound human PD-L2
T6 construct: whole, on cells; also called hPD-L2
T6 sequence (looked up): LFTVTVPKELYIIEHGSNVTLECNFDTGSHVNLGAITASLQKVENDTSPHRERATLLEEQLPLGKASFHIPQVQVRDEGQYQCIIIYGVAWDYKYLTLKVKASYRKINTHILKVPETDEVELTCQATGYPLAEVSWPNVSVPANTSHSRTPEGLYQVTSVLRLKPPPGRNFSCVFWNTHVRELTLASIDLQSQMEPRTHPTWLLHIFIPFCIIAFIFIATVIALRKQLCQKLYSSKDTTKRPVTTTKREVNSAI

[8] = target: T6, human PD-L2 (membrane-bound type), …; experiment: flow cytometry on cells with membrane-bound human PD-L2; the antibody also bound the CHO-K1 parental cells
[9] = target: T4, human PD-L1 (membrane-bound type), …; experiment: flow cytometry on cells with membrane-bound PD-L1
[10] = target: T2, native form of secretory sPD-L1-3, in …; experiment: ELISA with MC38 culture supernatant containing native sPD-L1-3

T3 sequence (Q9NZQ7 132-238): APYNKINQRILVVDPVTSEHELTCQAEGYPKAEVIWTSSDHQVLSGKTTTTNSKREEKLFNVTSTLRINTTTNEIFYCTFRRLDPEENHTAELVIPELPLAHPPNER
T4 sequence (Q9NZQ7 19-290): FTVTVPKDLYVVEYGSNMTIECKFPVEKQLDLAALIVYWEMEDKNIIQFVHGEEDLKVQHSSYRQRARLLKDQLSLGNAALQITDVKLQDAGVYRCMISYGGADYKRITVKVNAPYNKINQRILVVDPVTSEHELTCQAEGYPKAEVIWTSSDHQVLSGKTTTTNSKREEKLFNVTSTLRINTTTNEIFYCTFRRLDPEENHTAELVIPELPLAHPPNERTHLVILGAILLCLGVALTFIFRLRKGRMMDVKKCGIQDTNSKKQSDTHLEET
T2 sequence (Q9NZQ7 19-178): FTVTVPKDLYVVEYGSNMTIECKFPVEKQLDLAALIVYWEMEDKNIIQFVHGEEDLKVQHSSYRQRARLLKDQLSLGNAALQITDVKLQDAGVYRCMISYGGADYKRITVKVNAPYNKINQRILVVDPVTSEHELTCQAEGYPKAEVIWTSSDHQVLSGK
T1 sequence (Q9NZQ7 19-178, change not shown): as the sequence (Q9NZQ7 19-178) above

B1: PD-L1 mouse monoclonal antibody #19 (antibody, mouse IgG2b, V domains shown)
VH: EVQLQQSGPELVKPGASVKISCKASGSAFSSSWMNWLKQRPGQGLEWIGRIYPGDGDTNYNGKFKGKATLTADKSSSTAYMQLSSLTSVDSAVYFCARRRANHYGSNWYFDVWGAGTTVTVSS
VL: NIVLTQSPASLAVSLGQRATISCRASESVDSYGKSFMHWYQQKPGQPPKLLIYLASNLESGVPARFSGSGSRTDFTLTIDPVEADDAATYYCQQNNEDPYTFGGGTKLEIK
notes: also called mAb #19; Ab #19
B1: no binding (tested: 100 ng/100 µl/well) [1]; no binding (tested: 0.2 µg/well coated antibody) [2]; binds [3]. B1: binds [4].

B2: humanized PD-L1 antibody H6L5 (VH6 + VL5) (antibody, V domains shown)
VH: B1 VH with P9A, L11V, V12K, A16S, I20V, K67R, A68V, T87R, V89E, S91T
VL: NIVLTQSPASLSASVGDRVTISCRASESVDSYGKSFMHWYQQKPGQPPKLLIYLASNLESGVPARFSGSGSRTDFTLTIDSLQPEDFATYYCQQNNEDPYTFGGGTKLEIK
B2: binds [5]; no binding [6]; no binding [7].

B3: humanized PD-L1 antibody H4L4 (VH4 + VL4) (antibody, V domains shown)
VH: EVQLVQSGAEVKKPGSSVKVSCKASGSAFSSSWMNWLRQRPGQGLEWIGRIYPGDGDTNYNGKFKGRVTLTADKSSSTAYMELSSLRSVDTAVYFCARRRANHYGSNWYFDVWGAGTTVTVSS
VL: B2 VL with D80S
B3: binds [5].

B4: humanized PD-L1 antibody H5L4 (VH5 + VL4) (antibody, V domains shown)
VH: B3 VH with S16A, S76I, S85R
VL: B2 VL with D80S
B4: binds [8].

B5: humanized PD-L1 antibody H6L2 (humanized mouse monoclonal antibody #19, VH6 + VL2) (antibody, V domains shown)
VH: B3 VH with V5Q, R38K, E82Q, V89E
VL: B2 VL with A9S, S22T, A64S, D80S
notes: also called humanized antibody H6L2; humanized antibody #19
In the case of B5, the EC50 [9] is reported as 0.62 µg/mL, the binding result [6] is reported as “no binding” and the binding result [7] is reported as “no binding”. B5: no binding [10].
